Each block holds one binder with its values, some of them ahead of it.
Assays:
[1] = target: T1, mouse CD112 on RMA-S cells (RMA-S/mCD112) (mouse, UniProt P32507 32-530); assay: flow cytometry, RMA-S/mCD112 cells against control RMA-S cells
T1 construct: whole, on cells; also called mCD112 transfectants; RMA-S/mCD112 cells
T1 sequence (looked up): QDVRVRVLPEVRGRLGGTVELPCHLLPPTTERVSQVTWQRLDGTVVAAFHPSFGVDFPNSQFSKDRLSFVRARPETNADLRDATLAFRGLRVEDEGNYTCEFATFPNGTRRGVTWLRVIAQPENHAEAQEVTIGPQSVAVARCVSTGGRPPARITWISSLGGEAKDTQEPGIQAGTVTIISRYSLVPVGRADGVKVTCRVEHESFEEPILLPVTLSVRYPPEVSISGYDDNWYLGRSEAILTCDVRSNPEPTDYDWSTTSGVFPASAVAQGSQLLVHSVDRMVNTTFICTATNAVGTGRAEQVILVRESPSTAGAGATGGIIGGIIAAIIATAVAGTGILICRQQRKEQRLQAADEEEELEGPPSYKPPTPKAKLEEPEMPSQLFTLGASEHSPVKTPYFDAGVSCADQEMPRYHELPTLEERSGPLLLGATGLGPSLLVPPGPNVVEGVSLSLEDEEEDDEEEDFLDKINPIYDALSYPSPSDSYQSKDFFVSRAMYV
Text: FIG. 3E depicts graphs showing that the CD112R/CD112 interaction was conserved in mice. RMA-S/mCD112 cells (blue), a mouse lymphoma cell line stably expressing mCD112, or control RMA-S cells (red) were stained with mouse CD112R-Fc, mouse CD226-Fc or mouse TIGIT-Fc respectively.

[2] = target: T2, human CD112R (form used in Example 18 not stated) (human), Q6DKI7; assay: flow cytometry, CD112-Fc staining of human CD112R; panel 'None'
T2 chain: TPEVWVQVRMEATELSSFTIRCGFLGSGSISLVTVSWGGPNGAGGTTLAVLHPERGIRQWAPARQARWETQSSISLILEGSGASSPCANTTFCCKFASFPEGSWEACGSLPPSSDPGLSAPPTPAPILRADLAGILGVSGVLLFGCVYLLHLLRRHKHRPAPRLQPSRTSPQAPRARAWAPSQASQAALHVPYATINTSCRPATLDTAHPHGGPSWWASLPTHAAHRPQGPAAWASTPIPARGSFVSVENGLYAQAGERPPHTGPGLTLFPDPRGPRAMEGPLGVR

[3] = target: T2, human CD112R (form used in Example 18 …); assay: flow cytometry, CD112-Fc staining of human CD112R; panel '+2H6'
[4] = target: T2, human CD112R (form used in Example 18 …); assay: flow cytometry, CD112-Fc staining of human CD112R; panel '+4-4'
[5] = target: T2, human CD112R (form used in Example 18 …); assay: flow cytometry, CD112-Fc staining of human CD112R; panel '+4-5'
[6] = target: T3, human CD112-Fc fusion protein (human; mouse, UniProt Q92692 32-360); assay: SPR, Biacore 3000, CD112 amine-coupled to CM5 chip, CD112R as analyte at 4-333 nM
T3 construct: extracellular domain; Used soluble for cell staining, coated on beads, coated on plates and amine-coupled to a CM5 chip; the Biacore text only says CD112; also called CD112-Ig; CD112 fusion protein; not shown: constant region (Fc) of mouse IgG2a
T3 sequence (looked up): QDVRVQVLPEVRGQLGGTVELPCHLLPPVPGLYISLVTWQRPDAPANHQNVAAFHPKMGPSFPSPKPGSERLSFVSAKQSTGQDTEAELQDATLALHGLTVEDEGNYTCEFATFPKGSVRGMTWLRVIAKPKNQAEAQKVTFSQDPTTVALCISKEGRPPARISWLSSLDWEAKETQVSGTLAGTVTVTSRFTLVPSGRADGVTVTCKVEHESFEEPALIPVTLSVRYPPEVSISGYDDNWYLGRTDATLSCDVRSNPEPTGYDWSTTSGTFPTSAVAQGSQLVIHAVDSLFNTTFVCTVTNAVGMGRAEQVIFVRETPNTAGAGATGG
Text: (§1) FIG. 3D depicts a graph showing BIAcore3000 analysis of CD112R binding to CD112. A series of concentrations of CD112R protein was used to measure the binding kinetics with immobilized CD112.
(§2) All bio sensor experiments were run on a Biacore 3000 instrument (GE Healthcare, Piscataway, N.J., USA). PBS with 0.005% P20 buffer (Gibco) was used as the running buffer for both the immobilization and kinetics experiments. Amine-coupling chemistry was used to immobilize protein FLAG, CD112 and CD155 to a CM5 sensor chip surface at […]. Kinetic experiments were carried out for three different ligands using three different concentration series: 4, 12, 36, 111, 333 nM of CD112R; 9000, 3000, 1000, 333, 111 nM TGIT; 9000, 3000, 1000, 333, 111 nM PVR L3. All samples were diluted in PBS buffer and were injected for 3 minutes across the surface at a flowrate of 20 flL/min and the dissociation of analyte from the surface-bound ligands was monitored for 5 minutes. All analyte concentrations were performed in duplicate and an unmodified reference flow cell was used to correct for instrument drift and/or noise. Buffer blanks were used to double-reference the obtained kinetic data. Raw sensogram data was processed and fit using the Scrubber software package (Version 2.0b, BioLogic Software, Campbell, Australia; http_www_biologic_com_au).

[7] = target: T3, human CD112-Fc fusion protein; assay: Biacore 3000, concentration series of CD112R protein over immobilized CD112
Text: as §1, §2

[8] = target: T3, human CD112-Fc fusion protein; assay: competition on coated CD112 (beads, flow cytometry): staining by CD112R protein in the presence of rising CD226 protein
Text: FIG. 3F depicts graphs showing the competitive binding assay for CD112 among CD112R, CD226, and TIGIT. Coated CD112 was stained by CD112R protein in the presence of different concentration of TIGIT or CD226 protein; on the other hand, coated CD112 were stained by CD226 protein, in the presence of different concentration of CD112R protein.
CD112 is known to interact with both CD226 and TIGIT, though the latter interaction is relatively weak (Bottino et al., 2003; Stanietsky et al., 2009; Yu et al., 2009). It was investigated whether these two counter receptors compete with CD112R for CD112 interaction. CD112 protein was coated on beads, and stained with CD112R protein in the presence of different concentration of TIGIT or CD226 protein. Inclusion of TIGIT had little effect on disrupting this interaction, while CD226 was a good inhibitor of the CD112-CD112R binding (FIG. 3F). […] Because of the weak interaction between CD112 and TIGIT, as well as limited coated CD112 protein on beads, binding between these two molecules by flow cytometry was not observed. […] This conclusion was further supported by the studies that a CD112 mAb, clone TX31, blocked the binding of CD112 to both CD112R and CD226 (FIG. 4B and FIG. 8).

- binding result [1]: no binding
B1: mouse TIGIT-Fc fusion protein (Fc fusion, UniProt P86176 29-148, looked up)
chain: TIDTKRNISAEEGGSVILQCHFSSDTAEVTQVDWKQQDQLLAIYSVDLGWHVASVFSDRVVPGPSLGLTFQSLTMNDTGEYFCTYHTYPGGIYKGRIFLKVQESSDDRNGLAQFQTAPLG
notes: extracellular domain; also called TIGIT protein; not shown: Fc

- 1 subset (share of events in the gate drawn over the histogram) [2]: 11.2
- 1 subset (share of events in the gate drawn over the histogram) [3]: 4.26
- 1 subset (share of events in the gate drawn over the histogram) [4]: 13.8
- 1 subset (share of events in the gate drawn over the histogram) [5]: 12.8
B2: human CD112-Fc fusion protein, Q92692 32-360 (Fc fusion, UniProt Q92692 32-360, looked up, not shown: a dimerising Fc or GST)
chain: QDVRVQVLPEVRGQLGGTVELPCHLLPPVPGLYISLVTWQRPDAPANHQNVAAFHPKMGPSFPSPKPGSERLSFVSAKQSTGQDTEAELQDATLALHGLTVEDEGNYTCEFATFPKGSVRGMTWLRVIAKPKNQAEAQKVTFSQDPTTVALCISKEGRPPARISWLSSLDWEAKETQVSGTLAGTVTVTSRFTLVPSGRADGVTVTCKVEHESFEEPALIPVTLSVRYPPEVSISGYDDNWYLGRTDATLSCDVRSNPEPTGYDWSTTSGTFPTSAVAQGSQLVIHAVDSLFNTTFVCTVTNAVGMGRAEQVIFVRETPNTAGAGATGG

- Kd [6]: 88 nM
- Kd [7]: 88.4 nM
B3: human CD112R-mFc protein (extracellular domain of human CD112R fused to mouse IgG2a constant region) (Fc fusion)
chain: TPEVWVQVRMEATELSSFTIRCGFLGSGSISLVTVSWGGPNGAGGTTLAVLHPERGIRQWAPARQARWETQSSISLILEGSGASSPCANTTFCCKFASFPEGSWEACGSLPPSSDPGLSARSPRGPTIKPCPPCKCPAPNLLGGPSVFIFPPKIKDVLMISLSPIVTCVVVDVSEDDPDVQISWFVNNVEVHTAQTQTHREDYNSTLRVVSALPIQHQDWMSGKEFKCKVNNKDLPAPIERTISKPKGSVRAPQVYVLPPPEEEMTKKQVTLTCMVTDFMPEDIYVEWTNNGKTELNYKNTEPVLDSDGSYFMYSKLRVEKKNWVERNSYSCSVVHEGLHNHHTTKSFSRTPGK
notes: also called CD112R fusion protein; CD112R protein

- binding result [8]: binds
B4: human CD226-Fc fusion protein (Fc fusion, UniProt Q15762 19-254, looked up)
chain: EEVLWHTSVPFAENMSLECVYPSMGILTQVEWFKIGTQQDSIAIFSPTHGMVIRKPYAERVYFLNSTMASNNMTLFFRNASEDDVGYYSCSLYTYPQGTWQKVIQVVQSDSFEAAVPSNSHIVSEPGKNVTLTCQPQMTWPVQAVRWEKIQPRQIDLLTYCNLVHGRNFTSKFPRQIVSNCSHGRWSVIVIPDVTVSDSGLYRCYLQASAGENETFVMRLTVAEGKTDNQYTLFVA
notes: extracellular domain; also called CD226 protein; not shown: constant region (Fc) of mouse IgG2a

Source: patent publication US20170240613A1 (REGENTS OF THE UNIVERSITY OF COLORADO A BODY CORPORATE, published 2017)
